Article PMC9481563, “Structural insights into the pSer/pThr dependent regulation of the SHP2 tyrosine phosphatase in insulin and CD28 signaling” (Nature Communications, 2022)

Target: PTP1B catalytic domain, inactive C215S mutant (1-229 as printed) (human) (UniProt P18031)
Test: fluorescence polarisation; competitive titration: labelled CF-ppIRS1 and protein both fixed (50-80% saturation), unlabelled competitor peptide varied; triplicates; Kd from cubic fit

Sequence of PTP1B catalytic domain, inactive C215S mutant (1-229 as printed) (human) (P18031 1-229 C215S): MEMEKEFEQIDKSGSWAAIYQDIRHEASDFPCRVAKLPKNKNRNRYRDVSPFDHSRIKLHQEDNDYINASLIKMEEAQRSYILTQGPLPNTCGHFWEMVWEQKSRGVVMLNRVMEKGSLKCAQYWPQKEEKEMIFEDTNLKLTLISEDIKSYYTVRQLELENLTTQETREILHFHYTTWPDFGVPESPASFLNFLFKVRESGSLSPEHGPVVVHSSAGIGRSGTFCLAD

Substance	fold increase of binding over p0IRS1 [fold]	fold increase of binding over p0CD28 [fold]
ppIRS1, IRS1 peptide dually phosphorylated (pY632 + pS636)	19	–
ppCD28, CD28 peptide dually phosphorylated (pY191 + pT195)	–	2
